In one assay the test system is SKBR-3 cells. The assay can be described thus: Pak1-mediated macropinocytosis, vesicle formation by confocal microscopy. The class given is cell-based, human. The method, then:
FIG. 3—Requirement of DLC1/PIN in Pak1 mediated macropinocytosis. SKBR-3 cells were cotransfected with RFP-DLC1/PIN and GFP-Pak1 (upper panel), RFP-DLC1/PIN-S88A, and GFP-Pak1 (middle panel) and RFP-DLC1-1-66, and GFP-Pak1 (lower panel). Vesicle formation and localization of GFP and RFP proteins were analyzed by confocal microscopy. Ten randomly selected fields were analyzed for each condition. The experiment was repeated twice with similar results. Quantitation of vesicles formation was done using the following scoring system. −, cells containing 0–9 vesicles; +, cells containing 10–20 vesicles; and ++, cells containing >20 vesicles.
Requirement of DLC1/PIN in Pak1 mediated macropinocytosis. […] The inventors have used the fluorescein isothiocyanate (FITC)-labeled Dextran as a marker of endocytosis using a well-established dextran beads uptake assay (Dharmawardhane et al., 2000). […]
SK-BR3 cells were cotransfected with RFP-DLC1 and GFP-Pak1 (upper panel), RFP-DLC1-S88A and GFP-Pak1 (middle panel), and RFP-DLC8-1-66 and GFP-Pak1 (bottom panel). Vesicle formation and localization of GFP and RFP proteins were analyzed by confocal microscopy. Ten randomly selected fields were analyzed for each condition. […]

The subject of a further assay is Human dendritic cells. Put plainly: Macropinocytosis in dendritic cells, FITC-dextran uptake. The format is cell-based. Particulars: expression in human dendritic cells. The protocol: FIG. 16—DLC1 is required for macropinocytosis in dendritic cells. Human dendritic cells were plated on cover sips in 6-well tissue culture plates, transfected with RFP-DLC1 wild type or DLC1-1-66 mutant lacking Pak1 binding and phosphorylation sites. After 12 hours, FITC-dextran was added to the culture medium for 20 min and cells were fixed and stained with Topro-3 (a DNA dye) and analyzed by confocal microscopy for RFP-DLC1 (red) or RFP-DLC1-1-66 (red) and FITC-dextran (green). White arrows point to RFP-DLC1-1-66 transfected cells and red arrows point to cells transfected with RFP-DLC1.
Human dendritic cells were plated on cover slips in 6-well tissue culture plates, transfected with RFP-DLC1 wild type or DLC1-1-66 mutant lacking Pak1 binding and phosphorylation sites. After 12 hours, FITC-dextran was added to the culture medium for 20 min and cells were fixed and stained with Topro-3 (a DNA dye) and analyzed by confocal microscopy for RFP-DLC1 (red) or RFP-DLC1-1-66 (red) and FITC-dextran (green). White arrows point to RFP-DLC1-1-66 transfected cells and red arrows point to cells transfected with RFP-DLC1.

Assay [1] has as its system ER transactivation (ERE-luc). Put plainly: ERE-luc transactivation assay. The format is cell-based, human. Particulars: compared to the wild type DLC1.
Description: MCF-7/DA-Pak1 cells were transfected with ERE-luc, treated with or without Dox for 24 h and then with or without E2 (10^−9M) and/or Tam (10^−8M) for 24 h, and ERE-luc activity was measured. […] FIG. 20D: MCF-7/TAM-Sen and MCF-7/TAMR1 cells were transfected with ERE-luc and treated with E2 or Tam for 24 h and ERE-luc activity was measured. […] FIG. 20L: Ishikawa cells were cotransfected with Pak1 siRNA control or Pak1 siRNA wt and treated with or without Tam (10^−8M) for 24 h and ERE-luc activity was measured.
Ishikawa and MCF-7/TAMR1 cells were transfected with control or Pak1 siRNA for 48 h and then with ERE-luc for 24 h and treated with E2 (10^−9M) for 24 h and ERE-luc activity was measured. […] Ishikawa cells were treated with control or and Pak1 and DLC siRNA for 48 h and then transfected with ERE-luc and treated with Tam (10^−8M) for 24 h and ERE-luc activity was measured.
The subject of another assay is DLC1/PIN. The assay can be described thus: In vivo 32P-orthophosphate labeling and immunoprecipitation of T7-DLC1/PIN. Particulars: MCF-7 cells, coexpression with T7-DLC1/PIN. The format is cell-based, human. The method, then: FIGS. 2A–2G—MapDLC1/PINg of interaction domains of Pak1 and DLC1/PIN. FIG. 2A: Identification of Pak1 domains that interact with DLC1/PIN. GST-Pak1 fusion proteins containing wild-type (amino acids 1–545), kinase domain (amino acids 270–545), N-terminal domain (amino acids 1–132), PIX binding domain (amino acids 132–270), Nck-binding domain (amino acids 1–75), Cdc42/Rac-interacting (CRIB) domain (amino acids 52–132), and auto-inhibitory domain (amino acids 75–149) were incubated with in vitro translated DLC1/PIN (amino acids 1–89), and binding was analyzed by GST pull-down assay. FIG. 2B: Identification of the DLC1/PIN region that is involved in the binding of Pak1. GST-fusions of various lengths of DLC1/PIN were used in the GST pull-down assay using ^35S-labelled Pak1 (amino acids 1–545). FIGS. 2C–2G—Pak1 phosphorylation of DLC1/PIN. FIG. 2C: In vitro kinase assay using GST-DLC1/PIN as a substrate and purified bacterially expressed Pak1 as an enzyme. MBP was used as a positive control. FIG. 2D: ZR75R cells stably expressing T7-DLC1/PIN were labeled in vivo with ^32P-orthophosphate, serum starved, treated with EGF or HRG, and immunoprecipitated and phosphorylation status of DLC1/PIN was visualized by autoradiography. […] Cells were metabolically labeled with ^32P orthophosphate, treated with or without EGF (1 nM) and phosphorylation of T7-DLC1/PIN was analyzed by immunoprecipitation. […]

The subject of a further assay is DLC1 promoter. The assay can be described thus: DLC1 promoter luciferase reporter. The class given is cell-based, human. The note with it: MCF-7 cells, expression of inhibitor. The protocol: FIGS. 21A–21J—Estrogenic signals upregulate DLC1 expression via Pak1 pathway. FIG. 21A: DLC1 upregulation by E2 or Tam. MCF-7/Tam-sen, MCF-7/TAMR1 and Ishikawa cells were treated with E2 (10^−9M) or Tam (10^−9M) for 24 h, and cell lysates were assayed for DLC1 and Pak1 protein expression. FIG. 21B: Upregulation of DLC1 mRNA in MCF-7 cells treated with different doses of E2 for 24 h. FIG. 21C: Effect of different periods of E2 treatment and cycloheximide (CHX) and Actinomycin D (ACTD) treatment on the ability of E2 to upregulate DLC1 mRNA in MCF-7 cells. FIG. 21D: DLC1 mRNA and protein levels in MCF-7/DA-Pak1 cells by Northern and Western blotting. FIG. 21E: DLC1 mRNA and protein levels in MCF-7/DN-Pak1 cells by Northern and Western blotting. FIG. 21F: Downregulation of DLC1 protein expression in MCF-7 cells treated with Pak1-siRNA for 24 h. FIG. 21G: Modulation of DLC1 promoter (1245 bp) luc activity by the expression of wtPak1 or DN-Pak1. MCF-7 cells were transfected with DLC1-luc and transfected with either wtPak1 or Pak1 inhibitor 83-149 and luc activity was measured after 24 h. FIG. 21H: Upregulation of DLC1 promoter luc activity following pak1 induction in MCF-7/DA-Pak 1 cells. FIG. 21I: Downegulation of DLC1 promoter luc activity in MCF-7/DN-pak1 cells. […]
(In a reporter assay the amount or activity of a reporter protein is the signal.)

B1: DLC1-66 peptide: SEQ ID NO:11; DLC1/PIN mutant, amino acids 1–66, lacking the C-terminal 23 amino acids (Pak1 binding and phosphorylation sites) (protein, listed as Homo sapiens)
chain: MCDRKAVIKNADMSEEMQQDSVECATQALEKYNIEKDIAAHIKKEFDKKYNPTWHCIVGRNFGSYV
On to B1, for which the “transfected cells in which formation of vesicles was completely blocked” value with SKBR-3 cells (cotransfected with GFP-Pak1) is “more than 80%”. Also, the macropinocytic functions result in the assay on SKBR-3 cells (expression in human breast cancer cell line SKBR3) and in the assay on Human dendritic cells was “blocks macropinocytic functions” in each case.

B2: DLC1 1-68R mutant: DLC1 mutant lacking amino acids 67–89, behaves as a dominant-negative (protein, UniProt P63167 1-66, looked up, fragment)
chain: MCDRKAVIKNADMSEEMQQDSVECATQALEKYNIEKDIAAHIKKEFDKKYNPTWHCIVGRNFGSYV
As for B2, the “ERE-transactivation in the presence of tamoxifen” value in assay [1] is reported as “reduced ERE-transactivation”.

B3: […] Pak1 auto inhibitory fragment used as an inhibitor (Pak1 amino acids 83–149) (protein, UniProt Q13153 83-149, looked up, fragment)
chain: HTIHVGFDAVTGEFTGMPEQWARLLQTSNITKSEQKKNPQAVLDVLEFYNSKKTSNSQKYMSFTDKS
For B3, the “EGF-stimulated DLC1/PIN phosphorylation” value in the assay on DLC1/PIN was “completely blocked”. For the same molecule, in the assay on DLC1 promoter, the DLC1 promoter activity result was “suppressed”.
